Measured values published in patent US20040170990A1, “Intracellular nucleic acid inhibitors of small guanine nucleotide exchange factors” (published 2004).

Key:
[1] = molecular target: chimera ARF-1 protein fused at the carboxy terminus to the constant CH1 and CH2 domains of human IgG immunoglobulin (human) (UniProt P84077); test: cell-based or functional assay
[2] = molecular target: T1, cytohesin-1 (full-length) (UniProt Q15438); test: filter; details: non-selected library; 3 mM MgCl2, 37 C
T1 sequence: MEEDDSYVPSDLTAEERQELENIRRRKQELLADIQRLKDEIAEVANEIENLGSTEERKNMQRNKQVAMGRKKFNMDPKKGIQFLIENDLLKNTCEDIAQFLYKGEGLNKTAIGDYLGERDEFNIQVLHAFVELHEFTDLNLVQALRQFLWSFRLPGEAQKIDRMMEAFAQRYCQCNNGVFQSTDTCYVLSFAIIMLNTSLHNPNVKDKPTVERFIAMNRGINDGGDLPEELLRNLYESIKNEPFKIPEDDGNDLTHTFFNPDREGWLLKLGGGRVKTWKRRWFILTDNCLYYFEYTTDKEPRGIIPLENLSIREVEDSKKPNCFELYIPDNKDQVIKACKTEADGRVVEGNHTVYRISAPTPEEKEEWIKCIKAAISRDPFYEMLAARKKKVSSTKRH

[3] = molecular target: T2, cytohesin-1 Sec7 domain (C1-Sec7) (UniProt Q15438 Q15438:73-202); test: filter; 3 mM MgCl2, 37 C; details: tags: 6xHis, E. coli
T2 chain: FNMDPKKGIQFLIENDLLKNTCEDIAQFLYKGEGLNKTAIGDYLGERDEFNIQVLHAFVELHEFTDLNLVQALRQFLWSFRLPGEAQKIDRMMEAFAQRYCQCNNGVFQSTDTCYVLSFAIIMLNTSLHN
Description: (§1) Natl. Acad. Sci. USA 90 (1993), 11227-11231). […] Of the analysed sequences the clone M69 bound cytohesin-1-His6 with a dissociation constant of 16 nM (see Table 2). As controls the same binding experiments were carried out with E. coli lysates which were treated similarly to the cytohesin-1 expressed in E. coli.
(§2) In the next step the binding site of the aptamer M69 on cytohesin-1 was delimited in more detail. For this purpose filter binding studies were carried out using subdomain constructs of cytohesin-1. The PH domain and the Sec7 domain of cytohesin-1 were overexpressed as 6×His-Tag proteins (PH-His6 and C1-Sec7-His6) in E. coli and purified as described for cytohesin-1-His6. The synthetic polybasic C-peptide was obtained from the company TopLab (Munich). The Sec7 domain of the large Brefeldin A-sensitive ARF-GEF's Gea2 (Gea2-Sec7) was made available as 6×His-Tag protein by Cathy Jackson (Departement de Biologie Cellulaire et Moleculaire, CEA/Saclay, France). […] On the other hand, no interaction with the PH domain or the Sec7 domain of Gea2 could be detected (see Table 2). […] The aptamer M5 on the other hand recognises both the Sec7 domain of cytohesin-1 and also of Gea2 with approximately the same affinity. The PH domain of cytohesin-1 is recognised an order of magnitude less well. The aptamer M56 however binds best to the full-length protein cytohesin-1 and barely to the Sec7 domain of Gea2. Since both the Sec7 domain and also the PH domain of cytohesin-1 are bound with somewhat reduced affinities compared with the full-length protein, the aptamer appears to recognise a binding site on cytosin-1 which is composed of both domains.

[4] = molecular target: T3, cytohesin-1 PH domain (C1-PH) (UniProt Q15438 Q15438:260-377); test: filter; 3 mM MgCl2, 37 C; details: tags: 6xHis, E. coli; label: 5'-32P
T3 chain: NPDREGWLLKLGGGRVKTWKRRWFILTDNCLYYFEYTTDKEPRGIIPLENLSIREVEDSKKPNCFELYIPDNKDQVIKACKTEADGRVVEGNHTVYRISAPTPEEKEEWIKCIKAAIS
Description: as §1, §2

[5] = molecular target: T4, cytohesin-1 (full-length) (UniProt Q15438 Q15438:1-398); test: filter; 3 mM MgCl2, PBS-type buffer pH 7.3, 37 C; details: tags: 6xHis (cytohesin-1-His6), E. coli, Ni-NTA; label: 5'-32P
Description: (§3) Increasing concentrations of cytohesin-1-His6 (0.1 nM to 500 nM) were incubated with the aptamers according to the invention (1.0 nM) radioactively labelled with ³²P at the 5′ end for 1 h at 37° C. in selection buffer. The RNA/cytohesin-1-His6 complexes were then filtered over nitrocellulose acetate mixed membranes (HAWP 0.45 μm, Millipore). The filter was then rinsed with 5 ml of washing buffer (3 mM MgCl₂, 137 mM NaCl, 2.7 mM KCl, 4.3 mM Na₂HPO₄.7H₂O, 1.4 mM KH₂PO₄). Before the experiment the filters were pretreated for 10 minutes with 40 mM 6-aminocaproic acid and 20% ethanol. Radioactive RNA retained on the filters was quantified by analysis using a phosphor imager (Storm 860, Amersham). The dissociation constant (Kd) was determined as described by Jellinek et al. (Jellinek et al., Proc. Natl. Acad. Sci. USA 90 (1993), 11227-11231). […] Of the analysed sequences the clone M69 bound cytohesin-1-His6 with a dissociation constant of 16 nM (see Table 2). As controls the same binding experiments were carried out with E. coli lysates which were treated similarly to the cytohesin-1 expressed in E. coli.

[6] = molecular target: T5, Gea2 Sec7 domain (Gea2-Sec7, G2-Sec7) (UniProt P39993 P39993:570-714); test: filter; barely binds; 3 mM MgCl2, 37 C; details: tags: 6xHis, provided by Cathy Jackson; label: 5'-32P
T5 chain: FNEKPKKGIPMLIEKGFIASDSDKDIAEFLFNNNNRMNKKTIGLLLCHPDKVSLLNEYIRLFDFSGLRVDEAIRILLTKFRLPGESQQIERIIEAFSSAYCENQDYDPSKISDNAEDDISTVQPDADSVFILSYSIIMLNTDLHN
Description: as §1, with “The dissociation constant (Kd) was determined as described by Jellinek et al. (Jellinek et al., Proc. Natl.” for “Natl.”
as §2, with “The aptamer M56 however binds best to the full-length protein cytohesin-1 and barely to the Sec7 domain of Gea2. Since both the Sec7 domain and also the PH domain of cytohesin-1 are bound with somewhat reduced affinities compared with the full-length protein, the aptamer appears to recognise a binding site on cytosin-1 which is composed of both domains.” left out

[7] = molecular target: T4, cytohesin-1 (full-length); test: filter; 3 mM MgCl2, 37 C; details: tags: 6xHis (cytohesin-1-His6), E. coli, Ni-NTA
Description: as §1, §2

[8] = molecular target: T5, Gea2 Sec7 domain (Gea2-Sec7, G2-Sec7); test: filter; no measurable interaction; details: tags: 6xHis, provided by Cathy Jackson
Description: as §1
as §2, with “The aptamer M56 however binds best to the full-length protein cytohesin-1 and barely to the Sec7 domain of Gea2. Since both the Sec7 domain and also the PH domain of cytohesin-1 are bound with somewhat reduced affinities compared with the full-length protein, the aptamer appears to recognise a binding site on cytosin-1 which is composed of both domains.” left out

[9] = molecular target: T3, cytohesin-1 PH domain (C1-PH); test: filter; no measurable interaction; details: tags: 6xHis, E. coli
Description: as §1
as §2, with “The aptamer M56 however binds best to the full-length protein cytohesin-1 and barely to the Sec7 domain of Gea2. Since both the Sec7 domain and also the PH domain of cytohesin-1 are bound with somewhat reduced affinities compared with the full-length protein, the aptamer appears to recognise a binding site on cytosin-1 which is composed of both domains.” left out

[10] = molecular target: T4, cytohesin-1 (full-length); test: filter; 3 mM MgCl2, 37 C; details: tags: 6xHis (cytohesin-1-His6), E. coli, Ni-NTA; remark: listed apart in the source
Description: Filter binding experiments were carried out in order to test whether the selected aptamer sequences can also recognise native cytohesin-1 in solution. The interaction analyses are described in detail in the literature. (Jellinek et al., Proc. Natl. Acad. Sci. USA 90 (1993), 11227-11231; Jellinek et al., Biochemistry 33 (1994), 10450-10456).
as §3, with “As controls the same binding experiments were carried out with E. coli lysates which were treated similarly to the cytohesin-1 expressed in E. coli.” left out

[11] = molecular target: T4, cytohesin-1 (full-length); test: non-binding negative control; details: tags: 6xHis (cytohesin-1-His6), E. coli, Ni-NTA
[12] = molecular target: T5, Gea2 Sec7 domain (Gea2-Sec7, G2-Sec7); test: filter; 3 mM MgCl2, 37 C; details: tags: 6xHis, provided by Cathy Jackson; label: 5'-32P
Description: as §1, §2

chimera ARF-1 protein fused at the carboxy terminus to the constant CH1 and CH2 domains of human IgG immunoglobulin (human), sequence (P84077 whole entry, stated change not applied, the tested form may be a part): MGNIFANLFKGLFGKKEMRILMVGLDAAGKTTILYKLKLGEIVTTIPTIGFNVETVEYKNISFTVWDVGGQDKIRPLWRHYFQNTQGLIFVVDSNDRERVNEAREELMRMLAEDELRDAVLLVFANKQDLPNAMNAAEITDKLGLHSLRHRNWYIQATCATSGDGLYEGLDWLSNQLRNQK

cytohesin-1 (full-length protein) (from UniProt Q15438 1-398) (enzyme)
binding of [gamma-35S]-GTP to ARF-1 (GDP/GTP exchange assay) [1]: 10 fold

CUAUAGGGAGAGACAAGCUUGGGUCNNNNNNNNNNNNNNNNNNNNNNNNNNNNNNNNNNNNNNNNAGAAGAGAAAGAGAAGUUAAUUAAGGAUCCUCAG [non-selected N40 RNA library]
Kd [2]: > 4000 nM

B1: M56 (ssRNA)
RNA: GGGAGAGACAAGCUUGGGUCUGUUGUUGGACCAGUGUUAUUUUACGCGAUUGUGCGGUUGUGAAGAGAAAGAGAAGUUAAUUAAGGAUCCUCAG
Kd ([3]; label: 5'-32P): 280 nM | Kd [4]: 150 nM | Kd [5]: 5 nM | Kd [6]: > 1000 nM

B2: M69 (ssRNA)
RNA: GGGAGAGACAAGCUUGGGUCUAUUAUGCCUUUAGCUAGCGCAUUCUGUGGGGUGGGUGGAAGAAGAGAAAGAGAAGUUAAUUAAGGAUCCUCAG
Kd [7]: 16 nM | Kd [3]: 16 nM | binding result [8]: no binding | binding result [9]: no binding

B3: M3 (ssRNA)
RNA: GGGAGAGACAAGCUUGGGUCAGGGAGGGUAGGGAUUUGGUUGUCCCAUGUUCGCAGCCGUAGAAGAGAAAGAGAAGUUAAUUAAGGAUCCUCAG
binding result [10]: binds

B4: M41 (ssRNA)
RNA: GGGAGAGACAAGCUUGGGUCGUCAUCCGUGUUUUGUCAUGUUUUGAUGGGGUUUGGGGUGUGAUAAGAGAAAGAGAAGUUAAUUAAGGAUCCUCAG
binding result [10]: binds

B5: ML1 (ssRNA)
RNA: GGGAGAGACAAGCUUGGGUCGUGUCUGUGUAGAGGACAGGGCGAGAGUCUGAUUGUCUGCAGAAGAGAAAGAGAAGUUAAUUAAGGAUCCUCAG
binding result [11]: no binding

B6: M5 (ssRNA)
RNA: GGGAGAGACAAGCUUGGGUCGGGUUCGCUAAGUUGGUCUACCCCUCUCGAAUAUCCGUUAAGAAGAGAAAGAGAAGUUAAUUAAGGAUCCUCAG
Kd [12]: 48 nM | Kd ([7]; label: 5'-32P): 40 nM | Kd ([3]; label: 5'-32P): 36 nM | Kd [4]: 480 nM
